Measurements: US9518084B2, “Epitope tag for affinity-based applications” (VIB VZW, priority 2010, dated 2016)

Legend:
[1] = system: EPEA (SEQ ID NO:1)-tagged Rev protein; assay: In vivo detection of EPEA-tagged Rev in transfected HeLa cells by confocal microscopy; type: cell-based, HIV; settings: nanobody fused to mKO1 or GFP, GYQDYEPEA and EPEA tags
Excerpt: In another set of experiments, we explored the use of the EPEA (SEQ ID NO:1) tag to detect/visualize the expression of recombinant proteins within a (living) eukaryotic cell. […] Cells that are double-transfected with Rev-[sequence] (SEQ ID NO:10) or Rev-[sequence]
The two different tags [sequence] (SEQ ID NO:2) and EPEA (SEQ ID NO:1) were C-terminal fused to Rev by PCR using Takara Ex Taq polymerase (TAKARA BIO INC).
HeLa, human epithelial cells were maintained using standard procedures until confluent in DMEM medium with 10% fetal calf serum. For transfection of plasmid DNA in HeLa, cells were harvested by a Trypsin/EDTA treatment, counted and plated onto glass bottom microwell dishes (MatTek corporation). Transfections were preformed according to manufacturer's manual: the 4×10^5 cells were seeded in a 35 mm dish. […]
Transfected HeLa cells were imaged with a laser scanning SP5 confocal microscope (Leica Microsystems) equipped with an AF 6000 microscope and an AOBS, using a HCX PL APO×63 (NA 1.2) water immersion objective magnification. GFP was monitored with the Ar laser using the 488-nm line for excitation, and emission was detected between 492 and 570 nm. mKusabira orange fluorescent protein (mKO) was imaged using the DPSS-561 nm laser for excitation, and emission was detected between 570 and 675 nm.

[2] = system: Nb458-gaaEPEA (SEQ ID NO:8); assay: Solid phase ELISA, bivalent versus monovalent NbSyn2 alkaline phosphatase conjugate; type: binding; settings: alkaline phosphatase conjugates, dilutions 1/250 to 1/4000, OD405
Sequence of Nb458-gaaEPEA (SEQ ID NO:8) (as listed by the source): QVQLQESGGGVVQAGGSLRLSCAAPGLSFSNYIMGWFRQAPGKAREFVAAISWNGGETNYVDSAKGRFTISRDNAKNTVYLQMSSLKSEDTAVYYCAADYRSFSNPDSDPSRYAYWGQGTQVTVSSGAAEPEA

Molecule	Recognition of tagged Rev in double-transfected cells (colocalization in the nucleus) [1]	Sensitivity of ELISA detection compared with monovalent NbSyn2-AP conjugate [2]
NbSyn1a: Nanobody that specifically binds to α-synuclein, 126 amino acids, SEQ ID NO:24 (protein, Nb_Syn1a) VHH: EVQLVESGGGSVQAGGSLSLACAPSGLNASSYCMGWFRQSPGKEREGVARINGNAGIKTAYADSVKDRFTLSRDNAKNTVYLQMNSLKAEDSAIYFCAAKSSPGYCGGNWDNFGYWGQGTQVTVSS	recognized in vivo	–
biNbSyn2: bivalent version of NbSyn2 (SEQ ID NO:68) with a GGGGSGGGS linker between both NbSyn2 sequences (protein, Nanobody biNbSyn2) QVQLVESGGGSVQAGGSLRLSCAASGIDSSSYCMGWFRQRPGKEREGVARINGLGGVKTAYADSVKDRFTISRDNAENTVYLQMNSLKPEDTAIYYCAAKFSPGYCGGSWSNFGYWGQGTQVTVSSGGGGSGGGSQVQLQESGGGSVQAGGSLRLSCAASGIDSSSYCMGWFRQRPGKEREGVARINGLGGVKTAYADSVKDRFTISRDNAENTVYLQMNSLKPEDTAIYYCAAKFSPGYCGGSWSNFGYWGQGTQVTVSSHHHHHH	–	sensitivity of detection increases
